Assay results as given in the Human Domainome abundance scans (Beltran et al. 2025).
± gives the uncertainty stated by the source.

B1: Cytoplasmic polyadenylation element-binding protein 2, residues 513 to 575; numbered along this chain, Q7Z5Q1 (parent)
chain: KRVEVKPYVLDDQMCDECQGARCGGKFAPFFCANVTCLQYYCEFCWANIHSRAGREFHKPLVK

Variants of: B1
Assay: abundance fitness (aPCA) (normalised: wild type 0, dead -1); higher = more abundant; growth selection in yeast, the domain comes from the species named
Settings: Homo sapiens

Variant	abundance fitness
C23Q	-0.24 ± 0.075
C23R	-0.185 ± 0.035
C23S	-0.074 ± 0.035
C23T	-0.095 ± 0.053
C23V	-0.328 ± 0.06
C23W	-0.424 ± 0.061
C23Y	-0.38 ± 0.068
G24A	-0.052 ± 0.051
G24C	-0.242 ± 0.06
G24E	0.018 ± 0.053
G24H	-0.252 ± 0.12
G24I	-0.418 ± 0.06
G24K	-0.068 ± 0.049
G24L	-0.089 ± 0.035
G24M	-0.275 ± 0.06
G24N	0.172 ± 0.094
G24P	-0.21 ± 0.06
G24Q	0.066 ± 0.054
G24R	-0.135 ± 0.04
G24S	-0.046 ± 0.044
G24T	-0.325 ± 0.055
G24V	-0.083 ± 0.045
G24W	-0.278 ± 0.034
G24Y	-0.088 ± 0.071

Variant	abundance fitness
G25A	-0.147 ± 0.049
G25C	-0.349 ± 0.086
G25D	-0.082 ± 0.059
G25E	-0.195 ± 0.066
G25F	-0.118 ± 0.059
G25H	-0.19 ± 0.061
G25I	-0.538 ± 0.087
G25K	0.016 ± 0.033
G25L	-0.207 ± 0.039
G25M	-0.127 ± 0.061
G25N	-0.025 ± 0.085
G25P	-0.321 ± 0.06
G25Q	-0.066 ± 0.082
G25R	-0.081 ± 0.041
G25S	-0.138 ± 0.045
G25T	-0.088 ± 0.045
G25V	-0.323 ± 0.044
G25W	-0.075 ± 0.053
K26A	-0.016 ± 0.045
K26C	-0.261 ± 0.054
K26D	-0.148 ± 0.088
K26E	-0.091 ± 0.053
K26G	-0.082 ± 0.046
K26H	-0.126 ± 0.075

Variant	abundance fitness
K26I	-0.236 ± 0.091
K26L	-0.138 ± 0.036
K26M	-0.1 ± 0.056
K26Q	-0.132 ± 0.058
K26R	-0.027 ± 0.035
K26S	-0.079 ± 0.047
K26T	-0.073 ± 0.059
K26V	-0.06 ± 0.038
K26W	-0.509 ± 0.064
K26Y	-0.404 ± 0.084
F27A	0.068 ± 0.042
F27C	0.054 ± 0.057
F27D	-0.125 ± 0.082
F27E	-0.09 ± 0.051
F27G	-0.061 ± 0.042
F27H	-0.08 ± 0.11
F27I	-0.218 ± 0.1
F27K	0.084 ± 0.059
F27L	-0.015 ± 0.038
F27M	-0.013 ± 0.056
F27N	-0.099 ± 0.089
F27P	-0.01 ± 0.055
F27Q	-0.045 ± 0.05
F27R	-0.014 ± 0.047

Variant	abundance fitness
F27S	-0.022 ± 0.047
F27T	-0.053 ± 0.053
F27V	-0.035 ± 0.04
F27W	-0.178 ± 0.052
F27Y	-0.202 ± 0.095
A28C	-0.674 ± 0.15
A28D	-0.484 ± 0.077
A28E	-0.289 ± 0.053
A28F	-0.498 ± 0.11
A28G	-0.314 ± 0.034
A28H	-0.495 ± 0.097
A28I	-0.337 ± 0.065
A28K	-0.094 ± 0.06
A28L	-0.497 ± 0.058
A28M	-0.445 ± 0.094
A28N	-0.459 ± 0.13
A28P	-0.208 ± 0.068
A28Q	-0.366 ± 0.079
A28R	-0.233 ± 0.039
A28S	-0.321 ± 0.046
A28T	-0.364 ± 0.061
A28V	-0.287 ± 0.046
A28W	-0.381 ± 0.083
A28Y	-0.985 ± 0.2

Variant	abundance fitness
P29A	0.009 ± 0.056
P29C	-0.147 ± 0.052
P29D	-0.096 ± 0.1
P29E	-0.108 ± 0.061
P29F	-0.31 ± 0.074
P29G	-0.03 ± 0.041
P29I	-0.282 ± 0.073
P29K	-0.065 ± 0.047
P29N	-0.01 ± 0.062
P29Q	0.074 ± 0.11
P29R	-0.052 ± 0.038
P29S	0.009 ± 0.038
P29V	-0.199 ± 0.064
P29W	-0.293 ± 0.052
P29Y	-0.122 ± 0.053
F30A	-0.261 ± 0.066
F30C	-0.322 ± 0.061
F30D	-0.318 ± 0.087
F30E	-0.415 ± 0.11
F30G	-0.582 ± 0.063
F30I	-0.161 ± 0.079
F30K	0.037 ± 0.056
F30L	-0.036 ± 0.044
F30N	-0.081 ± 0.13

Variant	abundance fitness
F30P	-0.621 ± 0.092
F30Q	0.016 ± 0.063
F30R	-0.09 ± 0.04
F30S	-0.195 ± 0.049
F30T	-0.188 ± 0.055
F30V	-0.219 ± 0.049
F30Y	0.006 ± 0.075
F31A	-0.644 ± 0.081
F31C	-0.547 ± 0.082
F31D	-0.962 ± 0.23
F31E	-0.291 ± 0.079
F31G	-0.685 ± 0.06
F31H	-0.626 ± 0.16
F31K	-0.332 ± 0.09
F31L	-0.328 ± 0.047
F31M	-0.461 ± 0.11
F31N	-0.608 ± 0.098
F31P	-0.588 ± 0.069
F31Q	-0.425 ± 0.072
F31R	-0.324 ± 0.039
F31S	-0.591 ± 0.053
F31T	-0.57 ± 0.075
F31V	-0.622 ± 0.084
F31W	-0.04 ± 0.036

Variant	abundance fitness
F31Y	0.033 ± 0.086
C32E	-0.683 ± 0.056
C32F	-1.1 ± 0.18
C32G	-0.802 ± 0.08
C32H	-0.917 ± 0.15
C32I	-0.47 ± 0.2
C32K	-0.617 ± 0.072
C32L	-0.882 ± 0.059
C32M	-0.793 ± 0.074
C32N	-0.724 ± 0.12
C32P	-0.737 ± 0.089
C32Q	-0.742 ± 0.096
C32R	-0.739 ± 0.079
C32S	-0.664 ± 0.06
C32T	-0.779 ± 0.06
C32W	-0.929 ± 0.13
C32Y	-0.837 ± 0.11
A33D	0.12 ± 0.063
A33E	0.077 ± 0.046
A33F	-0.336 ± 0.078
A33G	-0.047 ± 0.035
A33H	-0.177 ± 0.1
A33K	-0.147 ± 0.085
A33L	-0.311 ± 0.042

Variant	abundance fitness
A33M	-0.18 ± 0.047
A33N	0.002 ± 0.07
A33P	-0.072 ± 0.05
A33Q	0.099 ± 0.053
A33R	-0.124 ± 0.041
A33S	0.061 ± 0.036
A33T	0.021 ± 0.062
A33V	-0.124 ± 0.044
A33W	-0.28 ± 0.042
A33Y	0.009 ± 0.089
N34A	-0.028 ± 0.05
N34C	-0.354 ± 0.082
N34D	-0.07 ± 0.089
N34E	0.043 ± 0.044
N34F	-0.363 ± 0.062
N34G	-0.106 ± 0.05
N34H	-0.438 ± 0.13
N34I	-0.731 ± 0.11
N34L	-1.24 ± 0.093
N34M	-0.44 ± 0.05
N34P	-0.878 ± 0.11
N34Q	-0.207 ± 0.078
N34R	-0.207 ± 0.046
N34S	-0.095 ± 0.04

Variant	abundance fitness
N34T	-0.175 ± 0.048
N34V	-0.29 ± 0.051
N34W	-0.2 ± 0.072
N34Y	-0.103 ± 0.074
V35A	0.039 ± 0.048
V35C	-0.253 ± 0.076
V35D	-0.091 ± 0.13
V35E	0.063 ± 0.062
V35F	-0.115 ± 0.06
V35G	0.058 ± 0.041
V35H	-0.037 ± 0.082
V35I	-0.088 ± 0.064
V35K	0.002 ± 0.07
V35M	-0.334 ± 0.09
V35N	0.108 ± 0.078
V35P	0.116 ± 0.053
V35Q	0.021 ± 0.053
V35R	0.077 ± 0.039
V35T	0.033 ± 0.053
V35W	-0.29 ± 0.053
V35Y	-0.305 ± 0.14
T36A	0.007 ± 0.045
T36C	-0.201 ± 0.12
T36D	0.108 ± 0.077

Variant	abundance fitness
T36E	0.108 ± 0.037
T36F	-0.312 ± 0.11
T36G	0.073 ± 0.036
T36H	-0.061 ± 0.05
T36I	-0.09 ± 0.062
T36K	-0.027 ± 0.045
T36L	-0.121 ± 0.035
T36M	-0.095 ± 0.062
T36N	-0.024 ± 0.057
T36P	-0.054 ± 0.048
T36Q	-0.058 ± 0.052
T36R	-0.151 ± 0.042
T36S	-0.011 ± 0.041
T36V	-0.106 ± 0.053
T36W	-0.328 ± 0.055
T36Y	-0.153 ± 0.069
C37A	-0.82 ± 0.06
C37D	-0.766 ± 0.1
C37E	-0.76 ± 0.083
C37F	-0.85 ± 0.14
C37G	-0.633 ± 0.056
C37H	-0.352 ± 0.29
C37I	-0.568 ± 0.16
C37L	-0.931 ± 0.074

Variant	abundance fitness
C37P	-0.496 ± 0.064
C37Q	-1.02 ± 0.13
C37R	-0.55 ± 0.057
C37S	-0.54 ± 0.059
C37T	-1 ± 0.12
C37V	-0.88 ± 0.068
C37W	-0.952 ± 0.092
C37Y	-0.806 ± 0.12
L38A	0.044 ± 0.043
L38C	0.064 ± 0.058
L38D	-0.054 ± 0.052
L38E	0.077 ± 0.053
L38F	-0.076 ± 0.072
L38G	-0.006 ± 0.039
L38H	0.029 ± 0.098
L38I	-0.115 ± 0.072
L38K	0.202 ± 0.062
L38M	0.123 ± 0.064
L38N	0.219 ± 0.071
L38P	-0.706 ± 0.087
L38R	0.056 ± 0.041
L38S	0.009 ± 0.052
L38T	-0.072 ± 0.059
L38V	-0.094 ± 0.038

Variant	abundance fitness
L38W	0.022 ± 0.046
L38Y	0.174 ± 0.077
Q39A	0.1 ± 0.04
Q39C	-0.046 ± 0.064
Q39D	-0.631 ± 0.087
Q39E	-0.13 ± 0.06
Q39F	-0.472 ± 0.089
Q39G	0.024 ± 0.051
Q39H	0.089 ± 0.083
Q39I	-0.573 ± 0.1
Q39K	0.201 ± 0.061
Q39L	-0.175 ± 0.047
Q39M	0.078 ± 0.074
Q39N	-0.103 ± 0.081
Q39P	-0.799 ± 0.091
Q39R	0.129 ± 0.045
Q39S	0.016 ± 0.045
Q39T	-0.002 ± 0.053
Q39V	-0.001 ± 0.044
Q39Y	-0.369 ± 0.1
Y40A	-0.149 ± 0.056
Y40C	-0.411 ± 0.1
Y40E	-0.702 ± 0.063
Y40F	-0.087 ± 0.089

Variant	abundance fitness
Y40G	-0.474 ± 0.045
Y40H	-0.092 ± 0.066
Y40I	-0.512 ± 0.096
Y40K	-0.186 ± 0.063
Y40L	-0.397 ± 0.049
Y40M	-0.231 ± 0.055
Y40N	0.041 ± 0.084
Y40P	-0.654 ± 0.079
Y40Q	-0.184 ± 0.09
Y40R	-0.132 ± 0.048
Y40S	-0.178 ± 0.051
Y40T	-0.315 ± 0.068
Y40V	-0.399 ± 0.047
Y40W	-0.059 ± 0.056
Y41A	-0.676 ± 0.072
Y41C	-0.365 ± 0.09
Y41D	-0.729 ± 0.1
Y41E	-0.652 ± 0.081
Y41F	-0.088 ± 0.11
Y41G	-0.878 ± 0.072
Y41H	-0.704 ± 0.26
Y41I	-0.694 ± 0.14
Y41K	-0.625 ± 0.1
Y41L	0.039 ± 0.039

Variant	abundance fitness
Y41M	-0.053 ± 0.056
Y41N	-0.898 ± 0.3
Y41P	-0.734 ± 0.082
Y41Q	-0.433 ± 0.073
Y41R	-0.804 ± 0.067
Y41S	-0.532 ± 0.064
Y41T	-0.329 ± 0.088
Y41V	-0.531 ± 0.042
C42A	-0.593 ± 0.11
C42D	-0.558 ± 0.094
C42E	-0.951 ± 0.4
C42F	-0.819 ± 0.11
C42G	-0.58 ± 0.08
C42H	-0.818 ± 0.068
C42L	-1.03 ± 0.075
C42M	-1.22 ± 0.24
C42P	-0.826 ± 0.08
C42Q	-1.21 ± 0.22
C42R	-1 ± 0.091
C42T	-1.11 ± 0.093
C42V	-0.849 ± 0.11
C42W	-1.29 ± 0.44
